The values that follow come from US20250388623A1, “PEPTIDE INHIBITOR AND USE THEREOF” (CHENGDU BRILLIANT INSPIRATION BIOTHERAPEUTICS CO., LTD, priority 2022, published 2025).

For test [1], the target named is TSP-1 protein (novoprotein, Catalog No. CU45), P07996. The experiment in a line: competition ELISA, TSP-1 coated, CD36-Fc as competitor, peptide 0-100 µM.
For test [2] the target is unchanged. The experiment in a line: competition ELISA, TSP-1 coated, CD36-Fc 0.25 µg/mL as competitor, peptide 100 µM.
Test [3] has as its target TSP-1 protein expressed by PMA-differentiated THP-1 macrophage-like cells, P07996. Kind of test: cell-based or functional assay.

Usually IC50 stands for the concentration needed to halve the response being measured.

Chain of TSP-1 protein (novoprotein, Catalog No. CU45), P07996 (P07996 19-1170 limits assumed): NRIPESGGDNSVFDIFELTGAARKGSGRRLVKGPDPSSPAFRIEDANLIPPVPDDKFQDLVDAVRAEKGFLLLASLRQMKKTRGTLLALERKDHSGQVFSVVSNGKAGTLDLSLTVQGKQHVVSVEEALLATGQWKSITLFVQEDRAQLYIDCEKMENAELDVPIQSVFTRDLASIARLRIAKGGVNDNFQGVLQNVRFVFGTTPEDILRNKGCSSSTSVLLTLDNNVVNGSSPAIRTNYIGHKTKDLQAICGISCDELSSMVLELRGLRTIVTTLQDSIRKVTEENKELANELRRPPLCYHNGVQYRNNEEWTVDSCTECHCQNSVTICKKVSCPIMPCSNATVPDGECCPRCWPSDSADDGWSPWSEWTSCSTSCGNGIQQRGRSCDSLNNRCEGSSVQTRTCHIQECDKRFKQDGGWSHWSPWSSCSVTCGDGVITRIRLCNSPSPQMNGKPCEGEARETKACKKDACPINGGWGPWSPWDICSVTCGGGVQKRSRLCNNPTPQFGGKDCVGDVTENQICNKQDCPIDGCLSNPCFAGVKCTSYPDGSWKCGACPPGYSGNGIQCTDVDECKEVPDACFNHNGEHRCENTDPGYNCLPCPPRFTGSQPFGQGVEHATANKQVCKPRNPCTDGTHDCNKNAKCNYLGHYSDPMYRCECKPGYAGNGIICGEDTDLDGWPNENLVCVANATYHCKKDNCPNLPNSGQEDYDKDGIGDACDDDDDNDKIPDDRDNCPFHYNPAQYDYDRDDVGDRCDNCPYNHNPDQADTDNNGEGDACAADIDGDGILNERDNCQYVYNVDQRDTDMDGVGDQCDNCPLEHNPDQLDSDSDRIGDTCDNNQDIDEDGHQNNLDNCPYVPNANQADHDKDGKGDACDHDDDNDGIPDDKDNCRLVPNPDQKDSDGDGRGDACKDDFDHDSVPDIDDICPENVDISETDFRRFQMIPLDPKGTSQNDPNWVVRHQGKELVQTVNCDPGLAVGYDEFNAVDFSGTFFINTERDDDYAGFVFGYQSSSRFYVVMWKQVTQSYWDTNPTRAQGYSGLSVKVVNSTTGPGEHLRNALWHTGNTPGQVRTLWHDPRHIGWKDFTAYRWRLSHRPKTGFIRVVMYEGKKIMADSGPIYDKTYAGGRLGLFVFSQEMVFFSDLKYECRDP
Chain of TSP-1 protein expressed by PMA-differentiated THP-1 macrophage-like cells, P07996 (P07996 19-1170 limits assumed): as above

In test [1], TCDAEDNC (modifications not checked) [SEQ ID NO: 43] displayed an IC50 of 3.62 µM. The Blocking rate (Mean, %) in test [2] was found to be 52%. In addition, in test [3], the Mean (relative fluorescence intensity), 293-TGFβ Res reporter cells (ratio to negative control) came to 0.65.
The matching figures for TCDAEDNC (modifications not checked) [SEQ ID NO: 44]: 6.71 µM, 52.9% and 0.43.
